The data set “SEC-MALS” deals with the molecule itself. Briefly: SEC-MALS. (In general: SEC sorts molecules by how far they enter the pores of the column.)
In another data set the target is M1-linked di-ubiquitin (UniProt P0CG48 1-76; P0CG48 1-76). Briefly: SEC.

Several values for one entry are separate records, joined by “and”; a condition that tells them apart may be missing. Equal entries are not always repeated.

B1: NEMO (112–350) (domain or fragment, human, UniProt Q9Y6K9 112-350, looked up)
chain: LDLKRQKEQALREVEHLKRCQQQMAEDKASVKAQVTSLLGELQESQSRLEAATKECQALEGRARAASEQARQLESEREALQQQHSVQVDQLRMQGQSVEAALRMERQAASEEKRKLAQLQVAYHQLFQEYDNHIKSSVVGSERKRGMQLEDLKQQLQQAEEALVAKQEVIDKLKEEAEQHKIVMETVPVLKAQADIYKADFQAERQAREKLAEKKELLQEQLEQLQREYSKLKASCQES
Consider B1, for which the stoichiometry N (usually a count of units in the complex or per binding partner) in the data set “SEC-MALS” turned out to be 2.

B2: NEMO UBAN-ZF (246–419) (domain or fragment, human, UniProt Q9Y6K9 246-419, looked up)
chain: KSSVVGSERKRGMQLEDLKQQLQQAEEALVAKQEVIDKLKEEAEQHKIVMETVPVLKAQADIYKADFQAERQAREKLAEKKELLQEQLEQLQREYSKLKASCQESARIEDMRKRHVEVSQAPLPPAPAYLSSPLALPSQRRSPPEEPPDFCCPKCQYQAPDMDTLQIHVMECIE
B2: in the data set with M1-linked di-ubiquitin, the binding result is “binds”.

B3: NEMO (150–350) (domain or fragment, human, UniProt Q9Y6K9 150-350, looked up)
chain: LGELQESQSRLEAATKECQALEGRARAASEQARQLESEREALQQQHSVQVDQLRMQGQSVEAALRMERQAASEEKRKLAQLQVAYHQLFQEYDNHIKSSVVGSERKRGMQLEDLKQQLQQAEEALVAKQEVIDKLKEEAEQHKIVMETVPVLKAQADIYKADFQAERQAREKLAEKKELLQEQLEQLQREYSKLKASCQES
Regarding B3, the “stoichiometry N” value in the data set “SEC-MALS” was 2 and 4. Further, the binding result in the data set with M1-linked di-ubiquitin was “binds”.

B4: NEMO UBAN (192–350) (domain or fragment, human, UniProt Q9Y6K9 192-350, looked up)
chain: QQQHSVQVDQLRMQGQSVEAALRMERQAASEEKRKLAQLQVAYHQLFQEYDNHIKSSVVGSERKRGMQLEDLKQQLQQAEEALVAKQEVIDKLKEEAEQHKIVMETVPVLKAQADIYKADFQAERQAREKLAEKKELLQEQLEQLQREYSKLKASCQES
As for B4, the binding result with M1-linked di-ubiquitin is listed as “binds”.
